Test results as given in patent US20160298120A1 (CHILDREN S HOSPITAL OF PHILADELPHIA, published 2016).

Legend:
ATF2 = target: T1, ATF2 (UniProt P15336 1-505, limits assumed); experiment: co-immunoprecipitation from cell lysates, blot probed with anti-IRF1
T1 construct: Tested by co-immunoprecipitation with IRF1; no association
T1 sequence (looked up): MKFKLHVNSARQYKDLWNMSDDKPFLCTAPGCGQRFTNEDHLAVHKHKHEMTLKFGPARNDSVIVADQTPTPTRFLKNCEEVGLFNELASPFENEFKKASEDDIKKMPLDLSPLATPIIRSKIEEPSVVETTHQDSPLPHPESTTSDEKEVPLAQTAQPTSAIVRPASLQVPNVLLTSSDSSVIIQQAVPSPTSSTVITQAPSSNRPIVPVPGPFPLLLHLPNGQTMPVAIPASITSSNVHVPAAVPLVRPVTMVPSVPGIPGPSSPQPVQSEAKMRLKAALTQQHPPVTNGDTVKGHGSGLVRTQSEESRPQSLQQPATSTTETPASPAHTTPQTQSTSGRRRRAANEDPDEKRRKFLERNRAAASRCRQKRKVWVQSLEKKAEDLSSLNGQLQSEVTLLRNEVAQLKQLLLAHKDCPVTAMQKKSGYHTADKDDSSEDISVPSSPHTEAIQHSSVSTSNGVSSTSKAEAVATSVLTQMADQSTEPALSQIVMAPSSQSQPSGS

HAT1 = target: T2, HAT1 (UniProt O14929 2-419, limits assumed); experiment: as above
T2 construct: Tested by co-immunoprecipitation with IRF1; no association
T2 sequence (looked up): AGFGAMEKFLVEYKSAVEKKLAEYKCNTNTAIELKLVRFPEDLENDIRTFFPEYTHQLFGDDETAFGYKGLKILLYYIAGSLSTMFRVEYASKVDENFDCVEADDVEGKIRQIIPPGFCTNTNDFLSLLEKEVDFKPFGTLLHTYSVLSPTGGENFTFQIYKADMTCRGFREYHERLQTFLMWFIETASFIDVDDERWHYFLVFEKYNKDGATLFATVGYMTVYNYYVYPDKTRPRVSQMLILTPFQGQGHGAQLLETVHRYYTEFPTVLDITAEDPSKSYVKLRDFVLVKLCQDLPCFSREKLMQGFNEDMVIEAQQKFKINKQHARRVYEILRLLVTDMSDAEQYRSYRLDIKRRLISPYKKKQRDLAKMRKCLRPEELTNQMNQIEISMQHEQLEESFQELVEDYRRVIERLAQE

B1: Interferon regulatory factor 1 (IRF1) (other, UniProt P10914 1-325, looked up)
chain: MPITRMRMRPWLEMQINSNQIPGLIWINKEEMIFQIPWKHAAKHGWDINKDACLFRSWAIHTGRYKAGEKEPDPKTWKANFRCAMNSLPDIEEVKDQSRNKGSSAVRVYRMLPPLTKNQRKERKSKSSRDAKSKAKRKSCGDSSPDTFSDGLSSSTLPDDHSSYTVPGYMQDLEVEQALTPALSPCAVSSTLPDWHIPVEVVPDSTSDLYNFQVSPMPSTSEATTDEDEEGKLPEDIMKLLEQSEWQPTNVDGKGYLLNEPGVQPTSVYGDFSCKEEPEIDSPGGDIGLSLQRVFTDLKNMDATWLDSLLTPVRLPSIQAIPCAP
notes: Endogenous protein from MonoMac6 lysates, detected with anti-IRF1 on the blot after co-immunoprecipitation
B1: no binding (ATF2); no binding (HAT1).
